Laboratory results as given in patent publication US5849261.
Values joined by “and” are separate entries in the source; they are usually repeats but may differ in a detail not shown here. Identical values can stand only once. Values belong to the binder of their own block, whether it stands above or below them. No end group written: not given here.

Legend:
[1] = biological target: VIP receptor on human cells (human); experiment: competition with 125I-VIP on HMC1 cells
[2] = biological target: VIP receptor on human cells (human); experiment: competition with 125I-VIP on HT29 cells
[3] = biological target: VIP receptor on human cells (human); experiment: competition with 125I-VIP on human PMNCs
[4] = biological target: VIP receptor on human cells (human); experiment: competition with 125I-VIP on KU812 cells
[5] = biological target: VIP receptor on human cells (human); experiment: competition with 125I-VIP on PANC1 cells
[6] = biological target: VIP receptor on human cells (human); experiment: competition with 125I-VIP on COLO320 cells
[7] = biological target: VIP receptor on human cells (human); experiment: competition with 125I-VIP on human platelets
[8] = biological target: VIP receptor of guinea pig lung membranes (guinea pig); experiment: competition with 0.01 nM 125I-VIP, guinea pig lung membranes

- IC50 [1]: 7 nM
- IC50 [2]: 2.2 nM
- IC50 [3]: 2.7 nM
- IC50 [4]: 1 nM
- IC50 [5]: 3.7 nM
- IC50 [6]: 2 nM
- IC50 [7]: 0.8 nM
- IC50 [8]: 6.9 nM
- Ki [8]: 6.7 nM
B1: ReO-complexed P917 (peptide)
peptide: HSDAVFTDNYTRLRKQMAVKKYLNSILNC
modifications: C-terminal C(BAT): S-(N6,N9-bis(2-mercapto-2-methylpropyl)-6,9-diazanonan-1-yl)cysteine; C-terminal amide; non-radioactive ReO complexed to the chelating moiety

- % inhibition @ 0.01 µM [8]: 79%
- IC50 [8]: < 10 nM
Binder: HSDAVFTDNYTRLRKQMAVKKYLNSILNGGC-NH2 [P916]

- IC50 [1]: 7 nM
- IC50 [2]: 1.2 nM
- IC50 [3]: 5.5 nM
- IC50 [4]: 0.8 nM
- IC50 [5]: 4.2 nM
- IC50 [6]: 1.5 nM
- IC50 [7]: 4 nM
Binder: HSDAVFTDNYTRLRKQMAVKKYLNSILN-NH2 [Vasoactive intestinal peptide (VIP)]

- IC50 [8]: 50 nM
Binder: AGCHSDAVFTDNYTRLRKQMAVKKYLNSILN-NH2 [P915]

- IC50 [1]: 7 nM
- IC50 [2]: 8.5 nM
- IC50 [3]: 6.5 nM
- IC50 [5]: 12.5 nM
- IC50 [6]: 4 nM
- IC50 [7]: 3 nM
- IC50 [8]: 20 nM
Binder: HSDAVFTDNYTRLRKQMAVKKYLNSILNGGC-NH2 (also: non-radioactive ReO complexed to the chelating moiety) [ReO-complexed P916]

- IC50 [1]: 15 nM
- IC50 [2]: 7 nM
- IC50 [3]: 7.5 nM
- IC50 [5]: 14 nM
- IC50 [6]: 6.7 nM
- IC50 [7]: 4.5 nM
- IC50 [8]: < 10 nM and > 1 nM
Binder: AGCHSDAVFTDNYTRLRKQMAVKKYLNSILN-NH2 (also: non-radioactive ReO complexed to the chelating moiety) [ReO-complexed P915]

- IC50 [1]: 8.5 nM
- IC50 [2]: 6.6 nM
- IC50 [3]: 6 nM
- IC50 [4]: 5.2 nM
- IC50 [5]: > 10 nM
- IC50 [6]: 6 nM
- IC50 [7]: 6 nM
- IC50 [8]: 20 nM
B2: ReO-complexed P887 (peptide)
peptide: HSDAVFTDNYTRLRKQMAVKKYLNSILNKGC
modifications: (ε-K): lysine 29 linked through its ε-amino group; C-terminal amide; non-radioactive ReO complexed to the chelating moiety

- % inhibition @ 0.01 µM [8]: 68%
- IC50 [8]: < 10 nM
B3: P887 (peptide)
peptide: B2 peptide
modifications: (ε-K): lysine 29 linked through its ε-amino group to the carboxyl group of the preceding residue; C-terminal amide

- % inhibition @ 0.01 µM [8]: 83%
- IC50 [8]: < 10 nM
B4: P917 (peptide)
peptide: HSDAVFTDNYTRLRKQMAVKKYLNSILNC
modifications: C-terminal C(BAT): S-(N6,N9-bis(2-mercapto-2-methylpropyl)-6,9-diazanonan-1-yl)cysteine; C-terminal amide
